In PMC10127594:

target: T1, Gac (Borrelia burgdorferi sensu stricto B31) (UniProt O51396); test: competition; conditions: EMSA: 50 mM Tris-HCl (pH not stated), 25 mM KCl, 10% glycerol, 0.01% Tween 20, 100 nM DTT, 1 mM PMSF; 15 min, room temperature; 10 nM probe, 25 nM Gac
T1 sequence: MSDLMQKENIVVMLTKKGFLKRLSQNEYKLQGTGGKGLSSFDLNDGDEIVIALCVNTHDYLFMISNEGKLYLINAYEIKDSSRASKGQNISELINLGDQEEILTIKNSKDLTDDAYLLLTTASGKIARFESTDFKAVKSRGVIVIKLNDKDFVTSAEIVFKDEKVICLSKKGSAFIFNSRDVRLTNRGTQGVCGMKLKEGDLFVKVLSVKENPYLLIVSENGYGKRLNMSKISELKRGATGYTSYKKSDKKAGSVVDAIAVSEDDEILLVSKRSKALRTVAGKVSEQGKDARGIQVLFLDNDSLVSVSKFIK

Point of comparison: B31 ospC operator/promoter, binding signal (fold reduction) 2.6. Against it:
- AACAGGCAAAAGGATTTGCCAAAGTCAGAAATT (double strand) [flaB competitor] — lower, < 1.3
- Ip89 ospC operator/promoter — lower, 2
- GTATTAAGTTATATTAATATAAAAGGAGAATATATT (double strand) [ospAB competitor] — lower, < 1.3
- empty pCR2.1 amplicon — lower, < 1.3
